Measurements from article PMC3382604.

How the values were obtained:
[1] = target: Dihydrodipicolinate synthase from Vitis vinifera (Vitis vinifera); experiment: crystal structure; Vv-DHDPS in complex with pyruvate, 2.2 Å, space group P1, eight monomers (two tetramers) in the asymmetric unit
[2] = target: Dihydrodipicolinate synthase from Vitis vinifera (Vitis vinifera); experiment: SAXS
[3] = target: Dihydrodipicolinate synthase from Vitis vinifera (Vitis vinifera); experiment: AUC; sedimentation velocity, 13 µM initial protein, 40,000 rpm, 30°C, absorbance at 280 nm, 2DSA Monte Carlo analysis; without and with saturating (5 mM) pyruvate
[4] = target: Dihydrodipicolinate synthase from Bacillus anthracis (Bacillus anthracis); experiment: AUC
[5] = target: Dihydrodipicolinate synthase from Bacillus anthracis (Bacillus anthracis); experiment: SAXS

Substance: Dihydrodipicolinate synthase from Vitis vinifera (enzyme)
- stoichiometry N [1]: 4
- stoichiometry N [2]: 4
- stoichiometry N [3]: 4

Substance: Dihydrodipicolinate synthase from Bacillus anthracis (enzyme)
- stoichiometry N [4]: 4
- stoichiometry N [5]: 4
